Results on 28 molecules are retold here after article PMC4072508, “Genome-Wide Prediction and Validation of Peptides That Bind Human Prosurvival Bcl-2 Proteins” (PLoS Computational Biology, 2014).

The labels stand for the following.
T1: Mcl-1, Q07820
T1 chain: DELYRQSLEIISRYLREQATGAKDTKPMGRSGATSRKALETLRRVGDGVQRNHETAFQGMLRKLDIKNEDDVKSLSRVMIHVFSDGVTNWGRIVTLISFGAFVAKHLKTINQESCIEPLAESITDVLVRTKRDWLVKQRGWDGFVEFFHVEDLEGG

T2: Bfl-1, Q16548
T2 chain: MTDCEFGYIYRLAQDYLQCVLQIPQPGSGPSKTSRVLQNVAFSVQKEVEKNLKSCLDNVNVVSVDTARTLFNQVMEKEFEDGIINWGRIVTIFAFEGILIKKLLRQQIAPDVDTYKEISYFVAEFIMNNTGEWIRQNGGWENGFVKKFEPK

B1: ZFP90 (peptide)
chain: PSECETLGSNLGHNADLLNENNILAK
B2: PRKD3 (peptide)
chain: IQENVDISTVDQIFADEVLGSGQFGI
B3: NLRX1 (peptide)
chain: YIVLGLRKTTDQKVGKEVAELVGRVG
B4: PRCP (peptide)
chain: DDMFEPHSWNLKELLDDCFQQWGVRP
B5: ISOC1 (peptide)
chain: AGYELLIQKFLSLYGDQIDMHRKFVV
B6: FOXI1 (peptide)
chain: PDKRLTLSQIYQYVLDNFPFYNKSKA
B7: ZNF295 (peptide)
chain: ERLKGQLCDVDLIVGDQKFRAHKNVL
B8: TAP1 (peptide)
chain: MSILTIASAVLEFVLDGIYNNTMGHV
B9: DHX30 (peptide)
chain: PVESSWIAPEDRLQSDDILPLGKDSG
B10: SRL (peptide)
chain: GYPFNDVCQWDIDRADLIFVVFDPTK
B11: DDX4 (peptide)
chain: FSKREKLVEILRNILDERTMVFVETK
B12: BBS10 (peptide)
chain: RMIVDCVSSHLKKTGDGAKTFIIFLC
B13: HEXDC (peptide)
chain: VLELHPGAQRLHIGCDEVYYLGEGEA
B14: SYT1 (peptide)
chain: FVGYNSTGAEDRHWSDMLANPRRPIA
B15: FUT8 (peptide)
chain: KKLKNLEGNELQRHADEFLLDLGHHE
B16: BMF (peptide)
chain: HQAEVQIARKLQCILDQFHRLHVQQH
B17: CRB1 (peptide)
chain: TGSLCEIATTLSFELDGFLWVKSGSV
B18: BMF (peptide)
chain: HQAEVQIARKDQCIADQFHRLHVQQH
B19: CYP2A6 (peptide)
chain: MPYMEAVIHEIQRFLDVIPMSLARRV
B20: DHX30 (peptide)
chain: PVESSWIAPELRLQLDDILPLGKDSG
B21: KCNH1 (peptide)
chain: VHKHSRLAEVDQLGSDILPQYKQEAP
B22: WDR60 (peptide)
chain: GGRVKLVHSALIQLGDSLSHKGNEFW
B23: PRCP (peptide)
chain: DDMFEPHSWNDKELSDDCFQQWGVRP
B24: DNAH10 (peptide)
chain: SMRRNAMGVGDVFEADLFTTRHISHW
B25: FBXO30 (peptide)
chain: LCQLSCVSKLDRDVCGSLLQSRGMVI
B26: PMAIP1 (peptide)
chain: AELEVECATQLRRFLDKLNFRQKLLN
B27: GBP6 (peptide)
chain: NDDTPWIARTLDNLADELTAILSAPA
B28: RBL1 (peptide)
chain: WTLFVYTKGNFRMILDDLVNSYHLLL

Sequence of Bcl-xL, Q07817 (Q07817 1-209): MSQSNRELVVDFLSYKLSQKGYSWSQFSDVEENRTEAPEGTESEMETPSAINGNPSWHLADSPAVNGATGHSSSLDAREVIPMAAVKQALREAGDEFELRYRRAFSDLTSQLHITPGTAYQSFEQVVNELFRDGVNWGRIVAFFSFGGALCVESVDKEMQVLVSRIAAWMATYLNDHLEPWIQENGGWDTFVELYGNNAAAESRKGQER

The first test concerns the target Bcl-xL, Q07817. Put plainly: peptide SPOT array, c-Myc-tagged receptor at 1 uM or 100 nM, anti-c-Myc-Cy3.
As for B1, the SPOT signal as a fraction of Bim BH3's signal on the same receptor and array is 0.09.

On to B2, for which the SPOT signal as a fraction of Bim BH3's signal on the same receptor and array was 0.07.

With B3, the SPOT signal as a fraction of Bim BH3's signal on the same receptor and array turned out to be 0.32.

With B4, the SPOT signal as a fraction of Bim BH3's signal on the same receptor and array came to 0.07.

Turning to B5, the SPOT signal as a fraction of Bim BH3's signal on the same receptor and array turned out to be 0.13.

Regarding B6, the SPOT signal as a fraction of Bim BH3's signal on the same receptor and array is 0.76.

As to B7, the SPOT signal as a fraction of Bim BH3's signal on the same receptor and array worked out at 0.16.

Take B8: the SPOT signal as a fraction of Bim BH3's signal on the same receptor and array came to 0.06.

Molecule B9 registered an SPOT signal as a fraction of Bim BH3's signal on the same receptor and array of 0.05.

With B10, the SPOT signal as a fraction of Bim BH3's signal on the same receptor and array worked out at 0.07.

Molecule B11 returned an SPOT signal as a fraction of Bim BH3's signal on the same receptor and array of 0.08.

Take B12: the SPOT signal as a fraction of Bim BH3's signal on the same receptor and array is 1.

B13: the SPOT signal as a fraction of Bim BH3's signal on the same receptor and array turned out to be 0.06.

In turn, B14 registered an SPOT signal as a fraction of Bim BH3's signal on the same receptor and array of 0.11.

B15 returned an SPOT signal as a fraction of Bim BH3's signal on the same receptor and array of 0.12.

B16 came in with an SPOT signal as a fraction of Bim BH3's signal on the same receptor and array of 0.27.

For the molecule B17, the SPOT signal as a fraction of Bim BH3's signal on the same receptor and array was 0.07.

Molecule B18 gave an SPOT signal as a fraction of Bim BH3's signal on the same receptor and array of 0.03.

Regarding B19, the SPOT signal as a fraction of Bim BH3's signal on the same receptor and array was 0.14.

For B20, the SPOT signal as a fraction of Bim BH3's signal on the same receptor and array was 0.05.

On to B21, for which the SPOT signal as a fraction of Bim BH3's signal on the same receptor and array amounted to 0.1.

On to B22, for which the SPOT signal as a fraction of Bim BH3's signal on the same receptor and array turned out to be 0.3.

Molecule B23 yielded an SPOT signal as a fraction of Bim BH3's signal on the same receptor and array of 0.07.

Molecule B24 had an SPOT signal as a fraction of Bim BH3's signal on the same receptor and array of 0.12.

In turn, B25 gave an SPOT signal as a fraction of Bim BH3's signal on the same receptor and array of 0.14.

Take B26: the SPOT signal as a fraction of Bim BH3's signal on the same receptor and array was determined as 0.2.

The molecule B27 returned an SPOT signal as a fraction of Bim BH3's signal on the same receptor and array of 0.04.

Molecule B28 displayed an SPOT signal as a fraction of Bim BH3's signal on the same receptor and array of 0.09.

A further test deals with T1, Mcl-1, Q07820. Described as above.
In the case of B1, the SPOT signal as a fraction of Bim BH3's signal on the same receptor and array was found to be 0.04.

Regarding B2, the SPOT signal as a fraction of Bim BH3's signal on the same receptor and array worked out at 0.03.

In turn, B3 came in with an SPOT signal as a fraction of Bim BH3's signal on the same receptor and array of 0.24.

As to B4, the SPOT signal as a fraction of Bim BH3's signal on the same receptor and array was 0.04.

Consider B5, for which the SPOT signal as a fraction of Bim BH3's signal on the same receptor and array worked out at 0.13.

Turning to B6, the SPOT signal as a fraction of Bim BH3's signal on the same receptor and array worked out at 0.39.

On to B7, for which the SPOT signal as a fraction of Bim BH3's signal on the same receptor and array was 0.08.

In turn, B8 came in with an SPOT signal as a fraction of Bim BH3's signal on the same receptor and array of 0.04.

B9: the SPOT signal as a fraction of Bim BH3's signal on the same receptor and array was found to be 0.04.

With B10, the SPOT signal as a fraction of Bim BH3's signal on the same receptor and array turned out to be 0.06.

Molecule B11 returned an SPOT signal as a fraction of Bim BH3's signal on the same receptor and array of 0.15.

Consider B12, for which the SPOT signal as a fraction of Bim BH3's signal on the same receptor and array worked out at 0.17.

B13 showed an SPOT signal as a fraction of Bim BH3's signal on the same receptor and array of 0.05.

In turn, B14 had an SPOT signal as a fraction of Bim BH3's signal on the same receptor and array of 0.08.

For B15, the SPOT signal as a fraction of Bim BH3's signal on the same receptor and array came out at 0.05.

Molecule B16 gave an SPOT signal as a fraction of Bim BH3's signal on the same receptor and array of 0.1.

Regarding B17, the SPOT signal as a fraction of Bim BH3's signal on the same receptor and array is 0.04.

B18 yielded an SPOT signal as a fraction of Bim BH3's signal on the same receptor and array of 0.01.

The molecule B19 returned an SPOT signal as a fraction of Bim BH3's signal on the same receptor and array of 0.08.

As to B20, the SPOT signal as a fraction of Bim BH3's signal on the same receptor and array was determined as 0.04.

In turn, B21 registered an SPOT signal as a fraction of Bim BH3's signal on the same receptor and array of 0.13.

Take B22: the SPOT signal as a fraction of Bim BH3's signal on the same receptor and array stood at 0.34.

Turning to B23, the SPOT signal as a fraction of Bim BH3's signal on the same receptor and array turned out to be 0.04.

Molecule B24 displayed an SPOT signal as a fraction of Bim BH3's signal on the same receptor and array of 0.09.

B25 came in with an SPOT signal as a fraction of Bim BH3's signal on the same receptor and array of 0.08.

The molecule B26 registered an SPOT signal as a fraction of Bim BH3's signal on the same receptor and array of 0.1.

Consider B27, for which the SPOT signal as a fraction of Bim BH3's signal on the same receptor and array stood at 0.04.

B28 came in with an SPOT signal as a fraction of Bim BH3's signal on the same receptor and array of 0.11.

The next test concerns the target T2, Bfl-1, Q16548. Described as above.
B1 yielded an SPOT signal as a fraction of Bim BH3's signal on the same receptor and array of 0.03.

B2 came in with an SPOT signal as a fraction of Bim BH3's signal on the same receptor and array of 0.04.

B3 had an SPOT signal as a fraction of Bim BH3's signal on the same receptor and array of 0.19.

B4 had an SPOT signal as a fraction of Bim BH3's signal on the same receptor and array of 0.05.

In turn, B5 came in with an SPOT signal as a fraction of Bim BH3's signal on the same receptor and array of 0.06.

B6 returned an SPOT signal as a fraction of Bim BH3's signal on the same receptor and array of 0.41.

Turning to B7, the SPOT signal as a fraction of Bim BH3's signal on the same receptor and array was 0.07.

Molecule B8 registered an SPOT signal as a fraction of Bim BH3's signal on the same receptor and array of 0.04.

Molecule B9 came in with an SPOT signal as a fraction of Bim BH3's signal on the same receptor and array of 0.04.

As for B10, the SPOT signal as a fraction of Bim BH3's signal on the same receptor and array is 0.05.

As to B11, the SPOT signal as a fraction of Bim BH3's signal on the same receptor and array was 0.08.

For B12, the SPOT signal as a fraction of Bim BH3's signal on the same receptor and array is 0.36.

B13: the SPOT signal as a fraction of Bim BH3's signal on the same receptor and array was 0.05.

For the molecule B14, the SPOT signal as a fraction of Bim BH3's signal on the same receptor and array is 0.07.

Take B15: the SPOT signal as a fraction of Bim BH3's signal on the same receptor and array is 0.05.

B16 came in with an SPOT signal as a fraction of Bim BH3's signal on the same receptor and array of 0.1.

Consider B17, for which the SPOT signal as a fraction of Bim BH3's signal on the same receptor and array was found to be 0.03.

The molecule B18 gave an SPOT signal as a fraction of Bim BH3's signal on the same receptor and array of 0.01.

Molecule B19 displayed an SPOT signal as a fraction of Bim BH3's signal on the same receptor and array of 0.06.

On to B20, for which the SPOT signal as a fraction of Bim BH3's signal on the same receptor and array was determined as 0.04.

The molecule B21 had an SPOT signal as a fraction of Bim BH3's signal on the same receptor and array of 0.06.

For B22, the SPOT signal as a fraction of Bim BH3's signal on the same receptor and array turned out to be 0.36.

Molecule B23 came in with an SPOT signal as a fraction of Bim BH3's signal on the same receptor and array of 0.05.

B24 had an SPOT signal as a fraction of Bim BH3's signal on the same receptor and array of 0.09.

As to B25, the SPOT signal as a fraction of Bim BH3's signal on the same receptor and array turned out to be 0.11.

The molecule B26 showed an SPOT signal as a fraction of Bim BH3's signal on the same receptor and array of 0.17.

Molecule B27 registered an SPOT signal as a fraction of Bim BH3's signal on the same receptor and array of 0.04.

The molecule B28 showed an SPOT signal as a fraction of Bim BH3's signal on the same receptor and array of 0.13.
